Assay results reported in PMC10720983.

Biological target: DtpM (dithiolopyrrolone methyltransferase) (Saccharothrix algeriensis)
Assay: SEC-MALS

stoichiometry N: 2
Substance: DtpM (dithiolopyrrolone methyltransferase) (enzyme)
